Reference: patent publication US20120034160A1 (AbbVie / Abbott, published 2012)

T1: Recombinant Human IL-17 (human, UniProt Q16552 20-155, limits assumed)
T1 sequence (looked up): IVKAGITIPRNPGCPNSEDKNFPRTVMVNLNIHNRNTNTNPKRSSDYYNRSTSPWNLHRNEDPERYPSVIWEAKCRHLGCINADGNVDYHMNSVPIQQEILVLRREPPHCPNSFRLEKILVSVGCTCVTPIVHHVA


Tests used:
Recombinant Human IL-1β = Recombinant Human IL-1β (human, UniProt P01584 117-269); assay: cell-based or functional assay
Recombinant Human IL-17 = biological target: T1, Recombinant Human IL-17; assay: cell-based or functional assay

Row | N-Terminal VD IL-1β Neutralization Assay EC50 (Recombinant Human IL-1β) [nM] | C-terminal VD IL-17 Neutralization Assay EC50 (Recombinant Human IL-17) [nM] | C-Terminal VD IL-1β Neutralization Assay EC50 (Recombinant Human IL-1β) [nM] | N-terminal VD IL-17 Neutralization Assay EC50 (Recombinant Human IL-17) [pM] | Binder
1 | 0.0091 | > 20 |  |  | DVD1282 (bispecific antibody, human IgG1, kappa) heavy: not shown light: DIQMTQSPSSLSASVGDRVTITCRASGNIHNYLTWYQQTPGKAPKLLIYNAKTLADGVPSRFSGSGSGTDYTFTISSLQPEDIATYYCQHFWSIPYTFGQGTKLQITRTVAAPEIVLTQSPDFQSVTPKEKVTITCRASQNIGSELHWYQQKPDQSPKLLIKYASHSISGVPSRFSGSGSGTDFTLTINGLEAEDAATYYCHQSDTLPHTFGQGTKVDIKRTVAAPSVFIFPPSDEQLKSGTASVVCLLNNFYPREAKVQWKVDNALQSGNSQESVTEQDSKDSTYSLSSTLTLSKADYEKHKVYACEVTHQGLSSPVTKSFNRGEC
2 | 0.0065 | > 20 |  |  | DVD1284 (bispecific antibody, human IgG1, kappa) heavy: not shown light: DIQMTQSPSSLSASVGDRVTITCRASGNIHNYLTWYQQTPGKAPKLLIYNAKTLADGVPSRFSGSGSGTDYTFTISSLQPEDIATYYCQHFWSIPYTFGQGTKLQITRTVAAPEIVLTQSPDFQSVTPKEKVTITCRASQNIGSELHWYQQKPDQSPKLLIKYASHSISGVPSRFSGSGSGTDFTLTINGLEAEDAATYYCHQSDTLPHTFGQGTKVDIKRTVAAPSVFIFPPSDEQLKSGTASVVCLLNNFYPREAKVQWKVDNALQSGNSQESVTEQDSKDSTYSLSSTLTLSKADYEKHKVYACEVTHQGLSSPVTKSFNRGEC
3 |  |  | 1.92 | 0.6 | DVD1275 (bispecific antibody, human IgG1, kappa) heavy: not shown light: EIVLTQSPDFQSVTPKEKVTITCRASQDIGSELHWYQQKPDQPPKLLIKYASHSTSGVPSRFSGSGSGTDFTLTINGLEAEDAGTYYCHQTDSLPYTFGPGTKVDIKRTVAAPDIQMTQSPSSLSASVGDRVTITCRASGNIHNYLTWYQQTPGKAPKLLIYNAKTLADGVPSRFSGSGSGTDYTFTISSLQPEDIATYYCQHFWSIPYTFGQGTKLQITRTVAAPSVFIFPPSDEQLKSGTASVVCLLNNFYPREAKVQWKVDNALQSGNSQESVTEQDSKDSTYSLSSTLTLSKADYEKHKVYACEVTHQGLSSPVTKSFNRGEC
4 |  |  | 1.27 | 2.1 | DVD1285 (bispecific antibody, human IgG1, kappa) heavy: not shown light: EIVLTQSPDFQSVTPKEKVTITCRASQNIGSELHWYQQKPDQSPKLLIKYASHSISGVPSRFSGSGSGTDFTLTINGLEAEDAATYYCHQSDTLPHTFGQGTKVDIKRTVAAPDIQMTQSPSSLSASVGDRVTITCRASGNIHNYLTWYQQTPGKAPKLLIYNAKTLADGVPSRFSGSGSGTDYTFTISSLQPEDIATYYCQHFWSIPYTFGQGTKLQITRTVAAPSVFIFPPSDEQLKSGTASVVCLLNNFYPREAKVQWKVDNALQSGNSQESVTEQDSKDSTYSLSSTLTLSKADYEKHKVYACEVTHQGLSSPVTKSFNRGEC
5 |  |  | 7.61 | 23.8 | DVD1283 (bispecific antibody, human IgG1, kappa) heavy: not shown light: EIVLTQSPDFQSVTPKEKVTITCRASQNIGSELHWYQQKPDQSPKLLIKYASHSISGVPSRFSGSGSGTDFTLTINGLEAEDAATYYCHQSDTLPHTFGQGTKVDIKRTVAAPDIQMTQSPSSLSASVGDRVTITCRASGNIHNYLTWYQQTPGKAPKLLIYNAKTLADGVPSRFSGSGSGTDYTFTISSLQPEDIATYYCQHFWSIPYTFGQGTKLQITRTVAAPSVFIFPPSDEQLKSGTASVVCLLNNFYPREAKVQWKVDNALQSGNSQESVTEQDSKDSTYSLSSTLTLSKADYEKHKVYACEVTHQGLSSPVTKSFNRGEC
6 |  |  | > 200 | 5.2 | DVD1279 (bispecific antibody, human IgG1, kappa) heavy: not shown light: EIVLTQSPDFQSVTPKEKVTITCRASQDIGSELHWYQQKPDQPPKLLIKYASHSTSGVPSRFSGSGSGTDFTLTINGLEAEDAGTYYCHQTDSLPYTFGPGTKVDIKRTVAAPDTVVTQSPAFLSVTPGEKVTITCITSTDIDVDMNWYQQKPDQPPKLLISQGNTLRPGVPSRFSSSGSGTDFTFTISSLEAEDAATYYCLQSDNLPLTFGQGTKLEIKRTVAAPSVFIFPPSDEQLKSGTASVVCLLNNFYPREAKVQWKVDNALQSGNSQESVTEQDSKDSTYSLSSTLTLSKADYEKHKVYACEVTHQGLSSPVTKSFNRGEC
7 | 0.168 | 1.21 |  |  | DVD1276 (bispecific antibody, human IgG1, kappa) heavy: not shown light: DTQVTQSPSSLSASVGDRVTITCITSTDIDVDMNWYQQKPGKPPKLLISQGNTLRPGVPSRFSSSGSGTDFTFTISSLQPEDFATYYCLQSDNLPLTFGQGTKLEIKRTVAAPEIVLTQSPDFQSVTPKEKVTITCRASQDIGSELHWYQQKPDQPPKLLIKYASHSTSGVPSRFSGSGSGTDFTLTINGLEAEDAGTYYCHQTDSLPYTFGPGTKVDIKRTVAAPSVFIFPPSDEQLKSGTASVVCLLNNFYPREAKVQWKVDNALQSGNSQESVTEQDSKDSTYSLSSTLTLSKADYEKHKVYACEVTHQGLSSPVTKSFNRGEC
8 | 0.149 | 0.256 |  |  | DVD1280 (bispecific antibody, human IgG1, kappa) heavy: not shown light: ETTVTQSPSSLSASVGDRVTITCITSTDIDVDMNWYQQKPGKPPKLLISQGNTLRPGVPSRFSSSGSGTDFTFTISSLQPEDFATYYCLQSDNLPLTFGQGTKLEIKRTVAAPEIVLTQSPDFQSVTPKEKVTITCRASQDIGSELHWYQQKPDQPPKLLIKYASHSTSGVPSRFSGSGSGTDFTLTINGLEAEDAGTYYCHQTDSLPYTFGPGTKVDIKRTVAAPSVFIFPPSDEQLKSGTASVVCLLNNFYPREAKVQWKVDNALQSGNSQESVTEQDSKDSTYSLSSTLTLSKADYEKHKVYACEVTHQGLSSPVTKSFNRGEC
9 |  |  | > 20 | 9.2 | DVD1277 (bispecific antibody, human IgG1, kappa) heavy: not shown light: EIVLTQSPDFQSVTPKEKVTITCRASQDIGSELHWYQQKPDQPPKLLIKYASHSTSGVPSRFSGSGSGTDFTLTINGLEAEDAGTYYCHQTDSLPYTFGPGTKVDIKRTVAAPDTQVTQSPSSLSASVGDRVTITCITSTDIDVDMNWYQQKPGKPPKLLISQGNTLRPGVPSRFSSSGSGTDFTFTISSLQPEDFATYYCLQSDNLPLTFGQGTKLEIKRTVAAPSVFIFPPSDEQLKSGTASVVCLLNNFYPREAKVQWKVDNALQSGNSQESVTEQDSKDSTYSLSSTLTLSKADYEKHKVYACEVTHQGLSSPVTKSFNRGEC
10 |  |  | > 150 | 2.7 | DVD1281 (bispecific antibody, human IgG1, kappa) heavy: not shown light: EIVLTQSPDFQSVTPKEKVTITCRASQDIGSELHWYQQKPDQPPKLLIKYASHSTSGVPSRFSGSGSGTDFTLTINGLEAEDAGTYYCHQTDSLPYTFGPGTKVDIKRTVAAPETTVTQSPSSLSASVGDRVTITCITSTDIDVDMNWYQQKPGKPPKLLISQGNTLRPGVPSRFSSSGSGTDFTFTISSLQPEDFATYYCLQSDNLPLTFGQGTKLEIKRTVAAPSVFIFPPSDEQLKSGTASVVCLLNNFYPREAKVQWKVDNALQSGNSQESVTEQDSKDSTYSLSSTLTLSKADYEKHKVYACEVTHQGLSSPVTKSFNRGEC
11 | 0.145 | 0.346 |  |  | DVD1278 (bispecific antibody, human IgG1, kappa) heavy: not shown light: DTVVTQSPAFLSVTPGEKVTITCITSTDIDVDMNWYQQKPDQPPKLLISQGNTLRPGVPSRFSSSGSGTDFTFTISSLEAEDAATYYCLQSDNLPLTFGQGTKLEIKRTVAAPEIVLTQSPDFQSVTPKEKVTITCRASQDIGSELHWYQQKPDQPPKLLIKYASHSTSGVPSRFSGSGSGTDFTLTINGLEAEDAGTYYCHQTDSLPYTFGPGTKVDIKRTVAAPSVFIFPPSDEQLKSGTASVVCLLNNFYPREAKVQWKVDNALQSGNSQESVTEQDSKDSTYSLSSTLTLSKADYEKHKVYACEVTHQGLSSPVTKSFNRGEC
